Data reported in patent US20070190603A1 (MIT, published 2007).

Target: the molecule itself
Assay: self-assembly into a macroscopic membrane in DMEM; phase-contrast microscopy and Congo Red staining
Experimental: The peptides were initially dissolved in water (5 mg/ml) or in 23% acetonitrile (10 mg/ml). A volume of 5-10 microliters of the dissolved peptides were applied to the DMEM medium, PBS or water. The formation of the membrane was first observed under a phase-contrast microscope and then, by the naked eye after staining with Congo Red.

| Protein | binding result |
| --- | --- |
| Ac-AEAKAEAEAKAK-NH2 [EAK12 peptide, Ac-HN-AEAKAEAEAKAK-CONH2] | binds |
| Ac-AEAEAKAKAEAEAKAK-NH2 (Self-assembling amphiphilic peptide) [EAK16 peptide, Ac-HN-AEAEAKAKAEAEAKAK-CONH2] | binds |
